The text below walks through data of patent US20190177366A1 (published 2019).

The term IC50 denotes the concentration that gives 50% inhibition.

First the molecules themselves.
B1: Compound 100 (peptide)
peptide: Ac-CRLPWNLQRIG[dL]PC-NH2
modifications: disulfide 1-14
SMILES: CC[C@H](C)[C@@H]1NC(=O)[C@H](CCCNC(=N)N)NC(=O)[C@H](CCC(N)=O)NC(=O)[C@H](CC(C)C)NC(=O)[C@H](CC(N)=O)NC(=O)[C@H](Cc2c[nH]c3ccccc23)NC(=O)[C@@H]2CCCN2C(=O)[C@H](CC(C)C)NC(=O)[C@H](CCCNC(=N)N)NC(=O)[C@@H](NC(C)=O)CSSC[C@@H](C(N)=O)NC(=O)[C@@H]2CCCN2C(=O)[C@@H](CC(C)C)NC(=O)CNC1=O
B2: Compound 104 (peptide)
peptide: Ac-CRLPWN[dL]QRIGLPC-NH2
modifications: disulfide 1-14
SMILES: CC[C@H](C)[C@@H]1NC(=O)[C@H](CCCNC(=N)N)NC(=O)[C@H](CCC(N)=O)NC(=O)[C@@H](CC(C)C)NC(=O)[C@H](CC(N)=O)NC(=O)[C@H](Cc2c[nH]c3ccccc23)NC(=O)[C@@H]2CCCN2C(=O)[C@H](CC(C)C)NC(=O)[C@H](CCCNC(=N)N)NC(=O)[C@@H](NC(C)=O)CSSC[C@@H](C(N)=O)NC(=O)[C@@H]2CCCN2C(=O)[C@H](CC(C)C)NC(=O)CNC1=O
notes: also called Ac-CRLPWNlQRIGLPC-NH2
B3: Compound 117 (peptide)
peptide: Ac-CRLPWNLQ[hArg]IGLPC-NH2
modifications: disulfide 1-14
SMILES: CC[C@H](C)[C@@H]1NC(=O)[C@H](CCCCNC(=N)N)NC(=O)[C@H](CCC(N)=O)NC(=O)[C@H](CC(C)C)NC(=O)[C@H](CC(N)=O)NC(=O)[C@H](Cc2c[nH]c3ccccc23)NC(=O)[C@@H]2CCCN2C(=O)[C@H](CC(C)C)NC(=O)[C@H](CCCNC(=N)N)NC(=O)[C@@H](NC(C)=O)CSSC[C@@H](C(N)=O)NC(=O)[C@@H]2CCCN2C(=O)[C@H](CC(C)C)NC(=O)CNC1=O
B4: Compound 84 (peptide)
peptide: Ac-CRLPWNLQR[NH(CH2)9CO]C-NH2
modifications: disulfide 1-11
SMILES: CC(=O)N[C@H]1CSSC[C@@H](C(N)=O)NC(=O)CCCCCCCCCNC(=O)[C@H](CCCNC(=N)N)NC(=O)[C@H](CCC(N)=O)NC(=O)[C@H](CC(C)C)NC(=O)[C@H](CC(N)=O)NC(=O)[C@H](Cc2c[nH]c3ccccc23)NC(=O)[C@@H]2CCCN2C(=O)[C@H](CC(C)C)NC(=O)[C@H](CCCNC(=N)N)NC1=O
B5: Compound 83 (peptide)
peptide: Ac-CRLPWNLQR[Aun]C-NH2
modifications: disulfide 1-11
SMILES: CC(=O)N[C@H]1CSSC[C@@H](C(N)=O)NC(=O)CCCCCCCCCCNC(=O)[C@H](CCCNC(=N)N)NC(=O)[C@H](CCC(N)=O)NC(=O)[C@H](CC(C)C)NC(=O)[C@H](CC(N)=O)NC(=O)[C@H](Cc2c[nH]c3ccccc23)NC(=O)[C@@H]2CCCN2C(=O)[C@H](CC(C)C)NC(=O)[C@H](CCCNC(=N)N)NC1=O
B6: Compound 85 (peptide)
peptide: Ac-CRLPWNLQR[NH(CH2)8CO]C-NH2
modifications: disulfide 1-11
SMILES: CC(=O)N[C@H]1CSSC[C@@H](C(N)=O)NC(=O)CCCCCCCCNC(=O)[C@H](CCCNC(=N)N)NC(=O)[C@H](CCC(N)=O)NC(=O)[C@H](CC(C)C)NC(=O)[C@H](CC(N)=O)NC(=O)[C@H](Cc2c[nH]c3ccccc23)NC(=O)[C@@H]2CCCN2C(=O)[C@H](CC(C)C)NC(=O)[C@H](CCCNC(=N)N)NC1=O
B7: Compound 86 (peptide)
peptide: Ac-CRLPWNLQR[Aoc]C-NH2
modifications: disulfide 1-11
SMILES: CC(=O)N[C@H]1CSSC[C@@H](C(N)=O)NC(=O)CCCCCCCNC(=O)[C@H](CCCNC(=N)N)NC(=O)[C@H](CCC(N)=O)NC(=O)[C@H](CC(C)C)NC(=O)[C@H](CC(N)=O)NC(=O)[C@H](Cc2c[nH]c3ccccc23)NC(=O)[C@@H]2CCCN2C(=O)[C@H](CC(C)C)NC(=O)[C@H](CCCNC(=N)N)NC1=O
B8: Compound 99 (peptide)
peptide: Ac-CRLPWNLQRIGL[dP]C-NH2
modifications: disulfide 1-14
SMILES: CC[C@H](C)[C@@H]1NC(=O)[C@H](CCCNC(=N)N)NC(=O)[C@H](CCC(N)=O)NC(=O)[C@H](CC(C)C)NC(=O)[C@H](CC(N)=O)NC(=O)[C@H](Cc2c[nH]c3ccccc23)NC(=O)[C@@H]2CCCN2C(=O)[C@H](CC(C)C)NC(=O)[C@H](CCCNC(=N)N)NC(=O)[C@@H](NC(C)=O)CSSC[C@@H](C(N)=O)NC(=O)[C@H]2CCCN2C(=O)[C@H](CC(C)C)NC(=O)CNC1=O
B9: Compound 101 (peptide)
peptide: Ac-CRLPWNLQR[dI]GLPC-NH2
modifications: disulfide 1-14
SMILES: CC[C@@H](C)[C@H]1NC(=O)[C@H](CCCNC(=N)N)NC(=O)[C@H](CCC(N)=O)NC(=O)[C@H](CC(C)C)NC(=O)[C@H](CC(N)=O)NC(=O)[C@H](Cc2c[nH]c3ccccc23)NC(=O)[C@@H]2CCCN2C(=O)[C@H](CC(C)C)NC(=O)[C@H](CCCNC(=N)N)NC(=O)[C@@H](NC(C)=O)CSSC[C@@H](C(N)=O)NC(=O)[C@@H]2CCCN2C(=O)[C@H](CC(C)C)NC(=O)CNC1=O
B10: Compound 79 (peptide)
peptide: Ac-CALPWNLQRIGLPC-NH2
modifications: disulfide 1-14
SMILES: CC[C@H](C)[C@@H]1NC(=O)[C@H](CCCNC(=N)N)NC(=O)[C@H](CCC(N)=O)NC(=O)[C@H](CC(C)C)NC(=O)[C@H](CC(N)=O)NC(=O)[C@H](Cc2c[nH]c3ccccc23)NC(=O)[C@@H]2CCCN2C(=O)[C@H](CC(C)C)NC(=O)[C@H](C)NC(=O)[C@@H](NC(C)=O)CSSC[C@@H](C(N)=O)NC(=O)[C@@H]2CCCN2C(=O)[C@H](CC(C)C)NC(=O)CNC1=O
B11: Compound 81 (peptide)
peptide: Ac-CRLPWNLQRIGGGC-NH2
modifications: disulfide 1-14
SMILES: CC[C@H](C)[C@@H]1NC(=O)[C@H](CCCNC(=N)N)NC(=O)[C@H](CCC(N)=O)NC(=O)[C@H](CC(C)C)NC(=O)[C@H](CC(N)=O)NC(=O)[C@H](Cc2c[nH]c3ccccc23)NC(=O)[C@@H]2CCCN2C(=O)[C@H](CC(C)C)NC(=O)[C@H](CCCNC(=N)N)NC(=O)[C@@H](NC(C)=O)CSSC[C@@H](C(N)=O)NC(=O)CNC(=O)CNC(=O)CNC1=O
B12: Compound 80 (peptide)
peptide: Ac-CRLPWNLQRIGLGC-NH2
modifications: disulfide 1-14
SMILES: CC[C@H](C)[C@@H]1NC(=O)[C@H](CCCNC(=N)N)NC(=O)[C@H](CCC(N)=O)NC(=O)[C@H](CC(C)C)NC(=O)[C@H](CC(N)=O)NC(=O)[C@H](Cc2c[nH]c3ccccc23)NC(=O)[C@@H]2CCCN2C(=O)[C@H](CC(C)C)NC(=O)[C@H](CCCNC(=N)N)NC(=O)[C@@H](NC(C)=O)CSSC[C@@H](C(N)=O)NC(=O)CNC(=O)[C@H](CC(C)C)NC(=O)CNC1=O
B13: Compound 105 (peptide)
peptide: Ac-CRLPW[dN]LQRIGLPC-NH2
modifications: disulfide 1-14
SMILES: CC[C@H](C)[C@@H]1NC(=O)[C@H](CCCNC(=N)N)NC(=O)[C@H](CCC(N)=O)NC(=O)[C@H](CC(C)C)NC(=O)[C@@H](CC(N)=O)NC(=O)[C@H](Cc2c[nH]c3ccccc23)NC(=O)[C@@H]2CCCN2C(=O)[C@H](CC(C)C)NC(=O)[C@H](CCCNC(=N)N)NC(=O)[C@@H](NC(C)=O)CSSC[C@@H](C(N)=O)NC(=O)[C@@H]2CCCN2C(=O)[C@H](CC(C)C)NC(=O)CNC1=O
B14: Compound 102 (peptide)
peptide: Ac-CRLPWNLQ[dR]IGLPC-NH2
modifications: disulfide 1-14
SMILES: CC[C@H](C)[C@@H]1NC(=O)[C@@H](CCCNC(=N)N)NC(=O)[C@H](CCC(N)=O)NC(=O)[C@H](CC(C)C)NC(=O)[C@H](CC(N)=O)NC(=O)[C@H](Cc2c[nH]c3ccccc23)NC(=O)[C@@H]2CCCN2C(=O)[C@H](CC(C)C)NC(=O)[C@H](CCCNC(=N)N)NC(=O)[C@@H](NC(C)=O)CSSC[C@@H](C(N)=O)NC(=O)[C@@H]2CCCN2C(=O)[C@H](CC(C)C)NC(=O)CNC1=O
B15: Compound 107 (peptide)
peptide: Ac-CRL[dP]WNLQRIGLPC-NH2
modifications: disulfide 1-14
SMILES: CC[C@H](C)[C@@H]1NC(=O)[C@H](CCCNC(=N)N)NC(=O)[C@H](CCC(N)=O)NC(=O)[C@H](CC(C)C)NC(=O)[C@H](CC(N)=O)NC(=O)[C@H](Cc2c[nH]c3ccccc23)NC(=O)[C@H]2CCCN2C(=O)[C@H](CC(C)C)NC(=O)[C@H](CCCNC(=N)N)NC(=O)[C@@H](NC(C)=O)CSSC[C@@H](C(N)=O)NC(=O)[C@@H]2CCCN2C(=O)[C@H](CC(C)C)NC(=O)CNC1=O
B16: Compound 103 (peptide)
peptide: Ac-CRLPWNL[dQ]RIGLPC-NH2
modifications: disulfide 1-14
SMILES: CC[C@H](C)[C@@H]1NC(=O)[C@H](CCCNC(=N)N)NC(=O)[C@@H](CCC(N)=O)NC(=O)[C@H](CC(C)C)NC(=O)[C@H](CC(N)=O)NC(=O)[C@H](Cc2c[nH]c3ccccc23)NC(=O)[C@@H]2CCCN2C(=O)[C@H](CC(C)C)NC(=O)[C@H](CCCNC(=N)N)NC(=O)[C@@H](NC(C)=O)CSSC[C@@H](C(N)=O)NC(=O)[C@@H]2CCCN2C(=O)[C@H](CC(C)C)NC(=O)CNC1=O
notes: also called Ac-CRLPWNLqRIGLPC-NH2
B17: Compound 106 (peptide)
peptide: Ac-CRLP[dW]NLQRIGLPC-NH2
modifications: disulfide 1-14
SMILES: CC[C@H](C)[C@@H]1NC(=O)[C@H](CCCNC(=N)N)NC(=O)[C@H](CCC(N)=O)NC(=O)[C@H](CC(C)C)NC(=O)[C@H](CC(N)=O)NC(=O)[C@@H](Cc2c[nH]c3ccccc23)NC(=O)[C@@H]2CCCN2C(=O)[C@H](CC(C)C)NC(=O)[C@H](CCCNC(=N)N)NC(=O)[C@@H](NC(C)=O)CSSC[C@@H](C(N)=O)NC(=O)[C@@H]2CCCN2C(=O)[C@H](CC(C)C)NC(=O)CNC1=O

Numbered stars: 1 amine (or outer) side, 2 acyl side, 3 side chain; on linkers, the order of the positions; unused ones are H or OH. Bridge positions count the residues as written; N and C are the ends. Square brackets hold non-standard residues; d marks the D form. NH(CH2)9CO = O=C(CCCCCCCCCN[*:1])[*:2]; NH(CH2)8CO = O=C(CCCCCCCCN[*:1])[*:2]; hArg = N=C(N)NCCCC[C@H](N)C(=O)O; Aun = NCCCCCCCCCCC(=O)O; Aoc = NCCCCCCCC(=O)O

T1 sequence (A8T644 31-152 limits assumed, chain 1 of 2): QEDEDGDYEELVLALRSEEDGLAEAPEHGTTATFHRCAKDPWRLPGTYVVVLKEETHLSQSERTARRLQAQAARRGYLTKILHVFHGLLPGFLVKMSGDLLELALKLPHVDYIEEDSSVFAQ
T1 sequence (A8T644 other isoform, or with tags, fused parts or gaps limits assumed, chain 2 of 2): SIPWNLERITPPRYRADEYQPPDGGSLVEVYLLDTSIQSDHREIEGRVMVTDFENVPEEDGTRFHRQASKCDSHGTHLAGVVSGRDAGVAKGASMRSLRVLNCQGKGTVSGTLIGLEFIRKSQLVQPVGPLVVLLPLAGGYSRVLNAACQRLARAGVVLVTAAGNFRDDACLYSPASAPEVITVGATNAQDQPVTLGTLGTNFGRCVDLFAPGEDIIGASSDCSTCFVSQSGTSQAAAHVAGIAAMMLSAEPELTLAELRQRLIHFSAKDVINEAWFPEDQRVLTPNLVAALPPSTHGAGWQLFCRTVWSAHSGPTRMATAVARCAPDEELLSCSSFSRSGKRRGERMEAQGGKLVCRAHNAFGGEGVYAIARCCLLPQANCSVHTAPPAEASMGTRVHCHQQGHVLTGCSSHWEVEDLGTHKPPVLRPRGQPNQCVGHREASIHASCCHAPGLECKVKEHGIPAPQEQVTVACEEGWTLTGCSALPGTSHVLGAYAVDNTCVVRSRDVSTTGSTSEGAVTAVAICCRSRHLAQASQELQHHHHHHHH

The assay has as its target T1, His-tagged, full-length PCSK9 (human, UniProt A8T644 31-152; Q8NBP7 153-692).
T1 construct: Target protein of the PCSK9/EGF(A) TR-FRET assay (10 nM); also called His-PCSK9; proprotein convertase subtilisin/kexin type 9
Description: TR-FRET competition; competitor EGF(A)-Fc on His-PCSK9. In general terms: In TR-FRET formats the signal depends on donor and acceptor labels being close together.
Molecule B1 showed a half-inhibitory concentration (IC50) greater than 50 µM.

With B2, the IC50 was greater than 50 µM.

B3: the IC50 was greater than 50 µM.

The molecule B4 displayed an IC50 greater than 50 µM.

Take B5: the IC50 is greater than 50 µM.

B6 gave an IC50 greater than 50 µM.

In turn, B7 had an IC50 greater than 50 µM.

B8 yielded an IC50 greater than 50 µM.

B9 came in with an IC50 greater than 50 µM.

Molecule B10 showed an IC50 greater than 50 µM.

As to B11, the half-inhibitory concentration (IC50) was greater than 50 µM.

For the molecule B12, the IC50 was greater than 50 µM.

In turn, B13 registered an IC50 greater than 50 µM.

Turning to B14, the IC50 was greater than 50 µM.

B15: the IC50 is greater than 50 µM.

Molecule B16 had a 50% inhibitory concentration (IC50) greater than 50 µM.

Take B17: the IC50 is greater than 50 µM.
